T1: IL-13Rα2 receptor (human, UniProt Q14627 27-380)
T1 construct: whole, on cells; also called IL-13Rα2 antigen; IL13Ra2
T1 sequence (looked up): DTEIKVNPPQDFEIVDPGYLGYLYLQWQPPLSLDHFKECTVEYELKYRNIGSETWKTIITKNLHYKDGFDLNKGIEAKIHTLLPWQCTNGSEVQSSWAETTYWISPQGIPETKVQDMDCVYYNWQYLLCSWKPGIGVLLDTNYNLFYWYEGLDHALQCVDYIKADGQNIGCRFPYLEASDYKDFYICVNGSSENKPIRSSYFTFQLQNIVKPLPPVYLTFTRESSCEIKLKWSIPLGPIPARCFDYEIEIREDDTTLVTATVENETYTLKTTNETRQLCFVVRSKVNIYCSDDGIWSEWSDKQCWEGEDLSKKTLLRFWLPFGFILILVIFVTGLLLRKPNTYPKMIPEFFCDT

B1: humanized antibody hu08 (antibody, V domains shown)
VH: EVQLVESGGGLVQPGGSLRLSCAASGFTFSRNGMSWVRQAPGKGLEWVATVSSGGSYIYYADSVKGRFTISRDNAKNSLYLQMNSLRAEDTAVYYCARQGTTALATRFFDVWGQGTLVTVSS
VL: DIQMTQSPSSLSASVGDRVTITCKASQDVGTAVAWYQQKPGKAPKLLIYSASYRSTGVPSRFSGSGSGTDFTLTISSLQPEDFATYYCQHHYSAPWTFGGGTKVEIKT
notes: Unconjugated antibody; also called hu08v1.0/1.0; IL13Ra2-AB08-v1010-hG1
B2: IL13Ra2-AB08-v1010-hG1-(C)_mcValCitPABC-#54 (antibody, V domains shown)
VH: B1 VH
VL: B1 VL
modifications: drug-linker mcValCitPABC-#54 on cysteine (C), positions not given; drug-linker mcValCitPABC-#54 on cysteine (C), positions not given; DAR 3.2 per antibody
B3: IL13Ra2-AB08-v1010-hG1-(C)_mc-#117 (antibody, V domains shown)
VH: B1 VH
VL: B1 VL
modifications: drug-linker mc-#117 on cysteine (C), positions not given; drug-linker mc-#117 on cysteine (C), positions not given; DAR 3.3 per antibody
B4: IL13Ra2-AB08-v1010-hG1-(C)_mc-0#118 (antibody, V domains shown)
VH: B1 VH
VL: B1 VL
modifications: drug-linker mc-0#118 on cysteine (C), positions not given; drug-linker mc-0#118 on cysteine (C), positions not given; DAR 3.2 per antibody
B5: IL13Ra2-AB08-v1010-hG1-(C)_mcValCitPABC-#226 (antibody, V domains shown)
VH: B1 VH
VL: B1 VL
modifications: drug-linker mcValCitPABC-#226 on cysteine (C), positions not given; drug-linker mcValCitPABC-#226 on cysteine (C), positions not given; DAR 3 per antibody
B6: IL13Ra2-AB08-v1010-hG1-(C)_mc-#115 (antibody, V domains shown)
VH: B1 VH
VL: B1 VL
modifications: drug-linker mc-#115 on cysteine (C), positions not given; drug-linker mc-#115 on cysteine (C), positions not given; DAR 4.3 per antibody
B7: IL13Ra2-AB08-v1010-hG1-(C)_Mal(H2O)Peg6C2-0#118 (antibody, V domains shown)
VH: B1 VH
VL: B1 VL
modifications: drug-linker Mal(H2O)Peg6C2-0#118 on cysteine (C), positions not given; drug-linker Mal(H2O)Peg6C2-0#118 on cysteine (C), positions not given; DAR 2.9 per antibody
B8: IL13Ra2-AB08-v1010-hG1-(C)_MalPeg6C2-#117 (antibody, V domains shown)
VH: B1 VH
VL: B1 VL
modifications: drug-linker MalPeg6C2-#117 on cysteine (C), positions not given; drug-linker MalPeg6C2-#117 on cysteine (C), positions not given; DAR 3.3 per antibody
B9: IL13Ra2-AB08-v1010-hG1-(C)_mcValCitPABC-#112 (antibody, V domains shown)
VH: B1 VH
VL: B1 VL
modifications: drug-linker mcValCitPABC-#112 on cysteine (C), positions not given; drug-linker mcValCitPABC-#112 on cysteine (C), positions not given; DAR 4 per antibody
B10: Notch-75-v1913-hG1-(C)_mcValCitPABC-#54 (antibody, human IgG1, kappa, V domains shown)
VH: EVQLVESGGGLVQPGGSLRLSCAASGYAFTDYWMTWVRQAPGKGLEWVAEISPNSGGTNFNEKFKGRFTISVDNAKNSLYLQMNSLRAEDTAVYYCARGEIRYNWFAYWGQGTLVTVSS
VL: DIQMTQSPSSLSASVGDRVTITCKASQNVGNNIAWYQQKPGKAPKLLIYYASNRYTGVPSRFSGSGYGTDFTLTISSLQPEDFATYYCQRLYNSPFTFGGGTKVEIKR
modifications: drug-linker mcValCitPABC-#54 on cysteine (C), positions not given; drug-linker mcValCitPABC-#54 on cysteine (C), positions not given; DAR 3.8 per antibody
B11: Notch-75-v1913-hG1-(C)_mcValCitPABC-#112 (antibody, human IgG1, kappa, V domains shown)
VH: B10 VH
VL: B10 VL
modifications: drug-linker mcValCitPABC-#112 on cysteine (C), positions not given; drug-linker mcValCitPABC-#112 on cysteine (C), positions not given; DAR 4.2 per antibody
B12: Notch-28-v1010-hG1-(C)_mcValCitPABC-#54 (antibody, human IgG1, kappa, V domains shown)
VH: EVQLVESGGGLVQPGGSLRLSCAASGFTFRDYGMTWVRQAPGKGLEWVAYISSGSNYIYYAEAVKGRFTISRDNAKNSLYLQMNSLRAEDTAVYYCARRGPFVLDAWGQGTLVTVSS
VL: DIQMTQSPSSLSASVGDRVTITCKASQSINRYLHWYQQKPGKAPKLLIYNANGLQTGVPSRFSGSGSGTDFTLTISSLQPEDFATYYCLQHNTWPDTFGGGTKVEIKR
modifications: drug-linker mcValCitPABC-#54 on cysteine (C), positions not given; drug-linker mcValCitPABC-#54 on cysteine (C), positions not given; DAR 3.9 per antibody
B13: Notch-28-v1010-hG1-(C)_mcValCitPABC-#112 (antibody, human IgG1, kappa, V domains shown)
VH: B12 VH
VL: B12 VL
modifications: drug-linker mcValCitPABC-#112 on cysteine (C), positions not given; drug-linker mcValCitPABC-#112 on cysteine (C), positions not given; DAR 3.9 per antibody

Biological target: T1, IL-13Rα2 receptor
Assay: statement in the example section; no binding assay described

| Binder | binding result |
| --- | --- |
| B1 | binds |

Biological target: T1, IL-13Rα2 receptor
Assay: cell-based or functional assay

| Binder | IC50 (ng Ab/mL), viability of A375 cells [ng Ab/mL] | IC50 (ng Ab/mL), viability of PC3MM2 cells [ng Ab/mL] |
| --- | --- | --- |
| B2 | 3.8 | 2.5 |
| B3 | 2.4 | 1.1 |
| B4 | 2.1 | 1.3 |
| B5 | 2.9 | 1.5 |
| B6 | 2.2 | 1.2 |
| B7 | 4.9 | 2.9 |
| B8 | 3.4 | 3.5 |
| B9 | 2.2 | 1.2 |

Biological target: Notch receptor (human)
Assay: cell-based or functional assay

| Binder | IC50 (ng Ab/mL), MTS viability of HCC2429 cells (repeat 1) [ng Ab/mL] | IC50 (ng Ab/mL), MTS viability of HCC2429 cells (repeat 2) [ng Ab/mL] | IC50 (ng Ab/mL), MTS viability of MDA-MB-468/hNotch cells (repeat 1) [ng Ab/mL] | IC50 (ng Ab/mL), MTS viability of MDA-MB-468/hNotch cells (repeat 2) [ng Ab/mL] | IC50 (ng Ab/mL), MTS viability of MDA-MB-468 cells [ng Ab/mL] | IC50 (ng Ab/mL), MTS viability of OVCAR3 cells [ng Ab/mL] | IC50 (ng Ab/mL), MTS viability of U2OS/hNotch cells [ng Ab/mL] |
| --- | --- | --- | --- | --- | --- | --- | --- |
| B10 | 611 | 3300 | 37 | 36 | 7000 | 515 | 523 |
| B11 | 214 | 630 | 26 | 25 |  | 254 |  |
| B12 | 473 | 2940 | 3.2 | 3 | 6540 | 306 | 1330 |
| B13 | 148 | 2050 | 1.3 | 3 |  | 17 |  |
